# Paper PMC4453530
# T1: DDK/Myc tag peptide
# T1 chain: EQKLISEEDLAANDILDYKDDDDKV
# B1: F2.2L (TGEV GAIT-like RNA motif) (structured_RNA)
# RNA: AAUCUUAAAACUGUCAAUGACUUUAAUAUCUU
# Key:
# [1] = target: EPRS purified recombinant (UniProt P07814 1-1512); test: EMSA
# DDK/Myc tag peptide = target: T1, DDK/Myc tag peptide; test: EMSA
# Sequence of EPRS purified recombinant (P07814 whole entry): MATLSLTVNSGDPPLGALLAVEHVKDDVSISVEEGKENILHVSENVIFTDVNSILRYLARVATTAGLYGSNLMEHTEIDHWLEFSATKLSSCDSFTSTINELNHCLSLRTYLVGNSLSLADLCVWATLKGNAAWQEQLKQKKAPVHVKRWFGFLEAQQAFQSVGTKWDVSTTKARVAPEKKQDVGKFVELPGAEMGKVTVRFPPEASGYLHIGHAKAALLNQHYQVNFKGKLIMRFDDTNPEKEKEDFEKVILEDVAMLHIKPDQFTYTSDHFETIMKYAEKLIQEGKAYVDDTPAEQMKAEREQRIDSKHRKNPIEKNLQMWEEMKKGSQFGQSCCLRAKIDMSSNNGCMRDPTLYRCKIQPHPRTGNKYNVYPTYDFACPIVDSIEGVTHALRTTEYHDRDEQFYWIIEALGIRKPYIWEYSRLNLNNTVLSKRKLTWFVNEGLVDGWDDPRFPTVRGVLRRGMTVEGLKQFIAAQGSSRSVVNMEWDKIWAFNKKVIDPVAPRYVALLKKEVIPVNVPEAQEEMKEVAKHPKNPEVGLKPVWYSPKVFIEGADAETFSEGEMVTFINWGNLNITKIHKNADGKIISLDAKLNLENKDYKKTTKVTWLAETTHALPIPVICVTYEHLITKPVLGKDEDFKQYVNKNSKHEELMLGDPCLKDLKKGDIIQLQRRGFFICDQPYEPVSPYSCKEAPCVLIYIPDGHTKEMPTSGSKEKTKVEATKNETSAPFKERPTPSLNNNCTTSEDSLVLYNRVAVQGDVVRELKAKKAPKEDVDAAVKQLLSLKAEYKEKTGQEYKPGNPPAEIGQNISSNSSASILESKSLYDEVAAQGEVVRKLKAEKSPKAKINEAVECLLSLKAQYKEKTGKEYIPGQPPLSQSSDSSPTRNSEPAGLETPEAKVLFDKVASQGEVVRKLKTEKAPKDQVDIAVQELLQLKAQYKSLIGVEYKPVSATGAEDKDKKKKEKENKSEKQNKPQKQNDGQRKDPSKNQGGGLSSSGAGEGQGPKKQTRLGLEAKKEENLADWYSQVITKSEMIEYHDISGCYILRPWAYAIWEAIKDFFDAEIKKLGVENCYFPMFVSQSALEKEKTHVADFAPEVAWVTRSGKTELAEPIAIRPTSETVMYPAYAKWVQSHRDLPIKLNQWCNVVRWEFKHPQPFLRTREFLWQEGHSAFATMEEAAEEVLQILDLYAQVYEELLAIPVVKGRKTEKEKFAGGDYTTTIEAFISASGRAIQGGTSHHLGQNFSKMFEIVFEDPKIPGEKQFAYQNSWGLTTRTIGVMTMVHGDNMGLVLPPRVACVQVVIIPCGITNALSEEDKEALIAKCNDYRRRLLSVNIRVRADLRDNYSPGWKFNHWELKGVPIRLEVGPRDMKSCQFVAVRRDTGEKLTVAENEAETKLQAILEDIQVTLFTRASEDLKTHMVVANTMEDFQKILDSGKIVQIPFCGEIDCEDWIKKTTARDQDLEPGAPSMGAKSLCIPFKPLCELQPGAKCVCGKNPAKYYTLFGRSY
binder,measurement,setting,value
B1,binding result,[1],binds
same,binding result,DDK/Myc tag peptide,no binding
